Measurements published in US20250215104A1 (WALDEN BIOSCIENCES, published 2025).

Experiments:
[1] = biological target: T1, cynomolgus soluble urokinase plasminogen activator receptor (suPAR) (cynomolgus, UniProt Q9GK78 23-303, limits assumed); assay: off-rate (kdis) screen of scFv clones, biosensor (Octet)
T1 construct: Target antigen of the off-rate screen; also called cynomolgus uPAR; cynomolgus suPAR

[2] = biological target: T2, human soluble urokinase plasminogen activator receptor (suPAR) (human, UniProt Q03405 23-303, limits assumed); assay: as above
T2 construct: Target antigen of the off-rate screen; also called hsuPAR; human suPAR
T2 sequence (Q03405 23-303 limits assumed): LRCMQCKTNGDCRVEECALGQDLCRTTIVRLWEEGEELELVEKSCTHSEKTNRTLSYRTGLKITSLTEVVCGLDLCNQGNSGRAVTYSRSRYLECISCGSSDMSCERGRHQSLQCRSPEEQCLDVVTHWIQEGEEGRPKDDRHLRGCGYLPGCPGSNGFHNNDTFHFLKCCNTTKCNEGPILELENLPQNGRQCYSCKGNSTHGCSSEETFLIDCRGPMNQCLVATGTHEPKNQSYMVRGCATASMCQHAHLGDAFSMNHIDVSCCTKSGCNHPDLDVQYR

T1 sequence (Q9GK78 23-303 limits assumed): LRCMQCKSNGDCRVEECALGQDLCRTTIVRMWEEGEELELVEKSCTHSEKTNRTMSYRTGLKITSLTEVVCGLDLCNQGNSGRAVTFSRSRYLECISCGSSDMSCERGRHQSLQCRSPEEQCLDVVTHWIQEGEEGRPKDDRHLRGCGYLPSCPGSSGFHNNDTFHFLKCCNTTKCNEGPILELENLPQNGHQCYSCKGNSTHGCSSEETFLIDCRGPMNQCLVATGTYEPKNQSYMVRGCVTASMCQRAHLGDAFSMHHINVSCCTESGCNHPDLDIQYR

B1: suPAR_DB01_C12 (scFv, V domains shown)
VH: QVQLVQSGAEVKKPGASVKVSCKASGDTFTSYYMHWVRQAPGQGLEWMGWIDHENGNTIYDQKFQGRVTMTRDTSTSTVYMELSSLRSEDTAVYYCARGYDVDWFVYWGQGTLVTVSS
VL: DIQMTQSPSSLSASVGDRVTITCSARSSVSYMYWYQQKPGKAPKLLIYRTSNLASGVPSRFSGSGSGTDFTLTISSLQPEDFATYYCQQYHSYPPTFGGGTKVEIK
notes: screened as scFv
koff [1]: 0.000105 s⁻¹
koff [2]: 0.00493 s⁻¹

B2: suPAR_DB01_D04 (scFv, V domains shown)
VH: QVQLVQSGAEVKKPGASVKVSCKASGYTFTSYYMHWVRQAPGQGLEWMGWIDHENGSTIYAQKFQGRVTMTRDTSTSTVYMELSSLRSEDTAVYYCARGYDVDWFVYWGQGTLVTVSS
VL: DIQMTQSPSSLSASVGDRVTITCSARSSVSYMYWYQQKPGKAPKLLIYRTSNLASGVPSRFSGSGSGTDFTLTISSLQPEDFATYYCQQYHSYPPTFGGGTKVEIK
notes: screened as scFv
koff [1]: 2.53e-05 s⁻¹
koff [2]: 0.000872 s⁻¹

B3: suPAR_DB01_D08 (scFv, V domains shown)
VH: QVQLVQSGAEVKKPGASVKVSCKASGYTFTSYYMHWVRQAPGQGLEWMGWIDHENGSTIYAQKFQGRVTMTRDTSTSTVYMELSSLRSEDTAVYYCARGYDVDWFVYWGQGTLVTVSS
VL: DIQMTQSPSSLSASVGDRVTITCRASSSVSYMYWYQQKPGKAPKLLIYRTSNLASGVPSRFSGSGSGTDFTLTISSLQPEDFATYYCQQYHSYPPTFGGGTKVEIK
notes: screened as scFv
koff [1]: 7.01e-07 s⁻¹
koff [2]: 0.000666 s⁻¹

B4: suPAR_DB01_E03 (scFv, V domains shown)
VH: QVQLVQSGAEVKKPGASVKVSCKASGYTFTDYYMHWVRQAPGQGLEWMGWIDHENGNTSYAQKFQGRVTMTRDTSTSTVYMELSSLRSEDTAVYYCARGYDVDWFVYWGQGTLVTVSS
VL: DIQMTQSPSSLSASVGDRVTITCSARSSVSYMYWYQQKPGKAPKLLIYRTSNLASGVPSRFSGSGSGTDFTLTISSLQPEDFATYYCQQYHSYPPTFGGGTKVEIK
notes: screened as scFv
koff [1]: 5.44e-05 s⁻¹
koff [2]: 0.00402 s⁻¹

B5: suPAR_DB01_D05 (scFv, V domains shown)
VH: QVQLVQSGAEVKKPGASVKVSCKASGYTFTGSYVHWVRQAPGQGLEWMGWIDHENGNTIYDQKFQGRVTMTRDTSTSTVYMELSSLRSEDTAVYYCARGYDVDWFVYWGQGTLVTVSS
VL: DIQMTQSPSSLSASVGDRVTITCSARQSVSYMYWYQQKPGKAPKLLIYRTSNLASGVPSRFSGSGSGTDFTLTISSLQPEDFATYYCQQYHSYPPTFGGGTKVEIK
notes: screened as scFv
koff [1]: 0.000419 s⁻¹
koff [2]: 0.00224 s⁻¹

B6: suPAR_DB01_E01 (scFv, V domains shown)
VH: QVQLVQSGAEVKKPGASVKVSCKASGYSFTSYYMHWVRQAPGQGLEWMGWIDPEGGSTIYDQKFQGRVTMTRDTSTSTVYMELSSLRSEDTAVYYCARGYDVDWFVYWGQGTLVTVSS
VL: DIQMTQSPSSLSASVGDRVTITCSARSSVSYMYWYQQKPGKAPKLLIYRTSNLASGVPSRFSGSGSGTDFTLTISSLQPEDFATYYCQQYHSYPPTFGGGTKVEIK
notes: screened as scFv
koff [1]: 0.000254 s⁻¹
koff [2]: 0.00474 s⁻¹

B7: suPAR_DB01_E04 (scFv, V domains shown)
VH: QVQLVQSGAEVKKPGASVKVSCKASGYTFTGYYMHWVRQAPGQGLEWMGWIDHENGNTIYDQKFQGRVTMTRDTSTSTVYMELSSLRSEDTAVYYCARGYDVDWFVYWGQGTLVTVSS
VL: DIQMTQSPSSLSASVGDRVTITCSARQSVSYMYWYQQKPGKAPKLLIYRTSNLASGVPSRFSGSGSGTDFTLTISSLQPEDFATYYCQQYHSYPPTFGGGTKVEIK
notes: screened as scFv
koff [1]: 0.00031 s⁻¹
koff [2]: 0.0014 s⁻¹

B8: suPAR_DB01_D02 (scFv, V domains shown)
VH: QVQLVQSGAEVKKPGASVKVSCKASGYTFTSYYMHWVRQAPGQGLEWMGWIDPNTGDTNYAQKFQGRVTMTRDTSTSTVYMELSSLRSEDTAVYYCARGYDVDWFVYWGQGTLVTVSS
VL: DIQMTQSPSSLSASVGDRVTITCRARSSVSYMYWYQQKPGKAPKLLIYRTSNLASGVPSRFSGSGSGTDFTLTISSLQPEDFATYYCQQYHSYPPTFGGGTKVEIK
notes: screened as scFv
koff [1]: 0.000343 s⁻¹
koff [2]: 0.00425 s⁻¹

B9: suPAR_DB01_D12 (scFv, V domains shown)
VH: QVQLVQSGAEVKKPGASVKVSCKASGYTFTSYYMHWVRQAPGQGLEWMGWIDPENGSTIYDQKFQGRVTMTRDTSTSTVYMELSSLRSEDTAVYYCARGYDVDWFVYWGQGTLVTVSS
VL: DIQMTQSPSSLSASVGDRVTITCSARSSVSYMYWYQQKPGKAPKLLIYRTSNLASGVPSRFSGSGSGTDFTLTISSLQPEDFATYYCQQYHSYPPTFGGGTKVEIK
notes: screened as scFv
koff [1]: 0.000232 s⁻¹
koff [2]: 0.00382 s⁻¹

B10: suPAR_DB01_D09 (scFv, V domains shown)
VH: QVQLVQSGAEVKKPGASVKVSCKASGYTFTNYYMHWVRQAPGQGLEWMGWIDHSNGNTIYAQKFQGRVTMTRDTSTSTVYMELSSLRSEDTAVYYCARGYDVDWFVYWGQGTLVTVSS
VL: DIQMTQSPSSLSASVGDRVTITCSARSSVSYMYWYQQKPGKAPKLLIYRTSNLASGVPSRFSGSGSGTDFTLTISSLQPEDFATYYCQQYHSYPPTFGGGTKVEIK
notes: screened as scFv
koff [1]: 0.000506 s⁻¹
koff [2]: 0.00109 s⁻¹

B11: suPAR_DB01_D03 (scFv, V domains shown)
VH: QVQLVQSGAEVKKPGASVKVSCKASGGTFTNYYMHWVRQAPGQGLEWMGWIDHENGNTIYDQKFQGRVTMTRDTSTSTVYMELSSLRSEDTAVYYCARGYDVDWFVYWGQGTLVTVSS
VL: DIQMTQSPSSLSASVGDRVTITCSARSSVSYMYWYQQKPGKAPKLLIYRTSNLASGVPSRFSGSGSGTDFTLTISSLQPEDFATYYCQQYHSYPPTFGGGTKVEIK
notes: screened as scFv
koff [1]: 0.000203 s⁻¹
koff [2]: 0.00362 s⁻¹

B12: suPAR_DB01_D10 (scFv, V domains shown)
VH: QVQLVQSGAEVKKPGASVKVSCKASGYTFTGYYMHWVRQAPGQGLEWMGWIDHENGSTSYDQKFQGRVTMTRDTSTSTVYMELSSLRSEDTAVYYCARGYDVDWFVYWGQGTLVTVSS
VL: DIQMTQSPSSLSASVGDRVTITCSARQSVSYMYWYQQKPGKAPKLLIYRTSNLASGVPSRFSGSGSGTDFTLTISSLQPEDFATYYCQQYHSYPPTFGGGTKVEIK
notes: screened as scFv
koff [1]: 0.000148 s⁻¹
koff [2]: 0.00147 s⁻¹

B13: suPAR_DB01_E02 (scFv, V domains shown)
VH: QVQLVQSGAEVKKPGASVKVSCKASGYTFTSYYMHWVRQAPGQGLEWMGWIDPEGGSTIYDQKFQGRVTMTRDTSTSTVYMELSSLRSEDTAVYYCARGYDVDWFVYWGQGTLVTVSS
VL: DIQMTQSPSSLSASVGDRVTITCSARSSVSYMYWYQQKPGKAPKLLIYRTSNLASGVPSRFSGSGSGTDFTLTISSLQPEDFATYYCQQYHSYPPTFGGGTKVEIK
notes: screened as scFv
koff [1]: 0.000347 s⁻¹
koff [2]: 0.00469 s⁻¹

B14: suPAR_DB01_E06 (scFv, V domains shown)
VH: QVQLVQSGAEVKKPGASVKVSCKASGYTFINYYMHWVRQAPGQGLEWMGWIDPENGNTIYDQKFQGRVTMTRDTSTSTVYMELSSLRSEDTAVYYCARGYDVDWFVYWGQGTLVTVSS
VL: DIQMTQSPSSLSASVGDRVTITCSARSSVSYMYWYQQKPGKAPKLLIYRTSNLASGVPSRFSGSGSGTDFTLTISSLQPEDFATYYCQQYHSYPPTFGGGTKVEIK
notes: screened as scFv
koff [1]: 0.000218 s⁻¹
koff [2]: 0.00224 s⁻¹

B15: suPAR_DB01_D01 (scFv, V domains shown)
VH: QVQLVQSGAEVKKPGASVKVSCKASGYTFTGYYMHWVRQAPGQGLEWMGWIDHENGSTIYAQKFQGRVTMTRDTSTSTVYMELSSLRSEDTAVYYCARGYDVDWFVYWGQGTLVTVSS
VL: DIQMTQSPSSLSASVGDRVTITCSARSSVSYMYWYQQKPGKAPKLLIYRTSNLASGVPSRFSGSGSGTDFTLTISSLQPEDFATYYCQQYHSYPPTFGGGTKVEIK
notes: screened as scFv
koff [1]: 0.000369 s⁻¹
koff [2]: 0.000531 s⁻¹
